We go through 6 molecules from patent publication US20120121579A1, “TREATMENT OF ONCOSTATIN M RECEPTOR BETA MEDIATED HEART FAILURE” (MAX-PLANCK-GESELLSCHAFT ZUR FORDERUNG DER WISSENSCHAFTEN …, priority 2009, published 2012).

Data set [1] relates to cardiomyocytes. Kind of data set: Cytokine-induced FGP / dedifferentiation markers in cultured adult cardiomyocytes (Western blot). In kind it is cell-based, rat. As to conditions: 20 ng/ml of cytokines, 10d of serum-free culture. The method, then: (§1) MCP-1 transgenic animals, intraperitoneally injection of oncostatin M and culture of adult cardiomyocytes. The generation of transgenic mice (from FVB/N mice) with cardiac restricted overexpression of monocyte chemotactic protein-1 has been previously described (Kolattukudy et al. 1998). 6 months old FVB mice were injected intraperitoneally twice daily with a volume of 0.2 ml of phosphate buffered saline containing 5% fetal calf serum without (CON) or with 60 ng oncostatin M (OSM) per gram of animal for fourteen days. Ventricular cardiac myocytes of 6-mo-old rats were isolated as previously described (Kubin et al. 1999). Myocytes were plated at a density of 1.5×10^4 cells/cm^2 on laminin-coated (10 μg/ml; Sigma) chamber slides or 6 well dishes (Nunc) in basic medium. Myocytes were allowed to recover for 2 days in 2% fetal calf serum (FCS). Thereafter, basic medium, FCS, 50 ng/ml insulin-like growth factor-1 or 20 ng/ml of cytokines were added as indicated. Media were replaced every other day. UO126 (Cell Signaling Technology) was added 1 h prior to stimulation. All experiments were performed in duplicate and constantly treated with 10 μM 1-(β-D-arabinofuranosyl)cytosine to prevent nonmyocyte growth. Determination of secreted ANP by Western Blot was performed after ultrafiltration (Millipore).
(§2) Preparation of Protein Extracts and Western Blot Analysis. Tissue Samples were Sonicated in Lysis buffer (0.1M Tris-HCl, 10% sodium dodecylsulfate (SDS), 10 mM ethylenediamine tetraacetic acid, 40 mM dithiothreitol (DTT); pH 8.0) containing inhibitors as previously described (Vogel et al. 2006). Cultures were washed twice with PBS and harvested by scraping in lysis buffer. After heating for 1 minute at 99° C. debris was removed by centrifugation for 2 min at 14000 g. Twenty micrograms of protein extracts were separated on 4%-12% SDS-PAGE gradient gels and processed as previously described (Vogel et al. 2006). Immunoreactive proteins were visualized on the VersaDoc (BioRad) and analyzed using the QuantityOne software (BioRad).
In general terms: A western blot detects proteins with antibodies after separation by electrophoresis.

For data set [2], the system named is cardiomyocytes. Kind of data set: Morphology of cultured adult cardiomyocytes: lengthening, sarcomeres, α-SM actin, cell growth (phase contrast, immunostaining). In kind it is cell-based, rat. To be noted: for inhibition of OSM-induced cell lengthening: OSM-stimulated cardiomyocytes, serum-free. Here is the method: as §1
(§3) Phase-contrast micrographs, immunocytochemistry and fluorescence microscopy. Phase-contrast micrographs were taken with a 20× lens. For immunocytochemistry and fluorescence microscopy samples were processed as previously described (Kubin et al. 1999).

A further data set has as its system Erk1/2. Description: OSM-induced Erk1/2 activation in cultured cardiomyocytes (Western blot). To be noted: after 10 minutes of OSM. In kind it is cell-based, rat. Here is the method:
as §1, with “Determination of secreted ANP by Western Blot was performed after ultrafiltration (Millipore).” left out
(§4) Preparation of Protein Extracts and Western Blot Analysis. […] Immunoreactive proteins were visualized on the VersaDoc (BioRad) and analyzed using the QuantityOne software (BioRad).

For data set [3], the system named is OSM treated cardiomyocytes. Kind of data set: Inhibition of OSM-induced FGP in cultured cardiomyocytes (Western blot of 95 kDa B-Raf, α-SM actin, destrin, secreted ANP). In kind it is cell-based, rat. To be noted: after 10 days of OSM. The method, then: as §1, with “Determination of secreted ANP by Western Blot was performed after ultrafiltration (Millipore).” left out
as §4

The test system of a further data set is gp130/Raf/Erk axis. Description: Intraperitoneal oncostatin M treatment of mice, Western blot and immunostaining of cardiac tissue. Type of data set: in vivo, mouse. Here is the method:
as §1, §2, §3

[4] abbreviates: 60 ng OSM per gram i.p. twice daily for fourteen days.

Entries after “also recorded” stand apart in the source; their conditions may differ.

On to “MCP-1: monocyte chemotactic protein-1, recombinant mouse protein”, for which the “induction of FGP / dedifferentiation (re-expression of the 95 kDa B-Raf, α-SM actin and destrin)” value (from here on “induction of FGP / dedifferentiation”) in the data set with cardiomyocytes [1] is recorded as “neither TNF-α nor MCP-1 induced FGP”.
On to TNF-α, for which the “induction of FGP / dedifferentiation” value in the data set on cardiomyocytes [1] is “neither TNF-α nor MCP-1 induced FGP”.
In the case of `N#CC(=C(/N)Sc1ccccc1N)/C(C#N)=C(/N)Sc1ccccc1N` [UO126], in the data set on cardiomyocytes [2] (8 days), the “inhibition of OSM-induced cell lengthening” value is reported as “completely abolished OSM-induced lengthening; also recorded: abolishment of cell lengthening”. Moreover, the “inhibition of OSM-induced cell lengthening” value in the data set on cardiomyocytes [2] (8 days, listed as UO) is on record as “abolishes this effect”. Also, the “inhibition of OSM-induced Erk1/2 activation (phosphorylation)” value with Erk1/2 was “abolished the activation of Erk1/2; also recorded: inhibition of Erk1/2 activation”. In data set [3], the “inhibition of OSM-induced re-expression of α-SM actin, the 95 kDa B-Raf and destrin (FGP)” value is “complete inhibition of the reexpression; also recorded: loss of re-expression of α-SM actin, the 95 kDa B-Raf and destrin; also recorded: abolishment of cell lengthening, the reexpression of ANP, α-SM actin and the 95 kDa B-Raf isoform”; the “secretion of ANP by OSM-treated cardiomyocytes” value is reported as “loss of secreted atrial natriuretic peptide; also recorded: reduced secretion of ANP”.

B1: 11-6: interleukin-6, recombinant mouse cytokine (protein, UniProt P08505 25-211, looked up)
Interleukin-6: FPTSQVRRGDFTEDTTPNRPVYTTSQVGGLITHVLWEIVEMRKELCNGNSDCMNNDDALAENNLKLPEIQRNDGCYQTGYNQEICLLKISSGLLEYHSYLEYMKNNLKDNKKDKARVLQRDTETLIHIFNQEVKDLHKIVLPTPISNALLTDKLESQKEWLRTKTIQFILKSLEEFLKVTLRSTRQT
Consider B1, for which the “induction of FGP / dedifferentiation” value with cardiomyocytes [1] is recorded as “only a limited capacity to induce dedifferentiation”.

B2: cardiotrophin: recombinant mouse cytokine of the interleukin-6 class (protein, UniProt Q60753 1-203, looked up)
Cardiotrophin-1: MSQREGSLEDHQTDSSISFLPHLEAKIRQTHNLARLLTKYAEQLLEEYVQQQGEPFGLPGFSPPRLPLAGLSGPAPSHAGLPVSERLRQDAAALSVLPALLDAVRRRQAELNPRAPRLLRSLEDAARQVRALGAAVETVLAALGAAARGPGPEPVTVATLFTANSTAGIFSAKVLGFHVCGLYGEWVSRTEGDLGQLVPGGVA
B2: in the data set with cardiomyocytes [1], the “induction of FGP / dedifferentiation” value is reported as “only a limited capacity to induce dedifferentiation”.

B3: OSM: mouse oncostatin M, recombinant cytokine obtained from Sigma (protein)
chain: ANRGCSNSSSQLLSQLQNQANLTGNTESLLEPYIRLQNLNTPDLRAACTQHSVAFPSEDTLRQLSKPHFLSTVYTTLDRVLYQLDALRQKFLKTPAFPKLDSARHNILGIRNNVFCMARLLNHSLEIPEPTQTDSGASRSTTTPDVFNTKIGSCGFLWGYHRFMGSVGRVFREWDDGSTRSRR
As to B3, the “re-expression of α-SM actin (immunostaining)” value in the data set on cardiomyocytes [2] (2% serum, 12 days) was “massive re-expression of α-SM actin throughout the myocyte”. In addition, the loss of sarcomeres entry with cardiomyocytes [2] (2% serum, 12 days, versus 2% serum treated controls) is given as “massive loss of sarcomeres”. The “remodelling of cardiomyocytes (cell lengthening)” value in the data set with cardiomyocytes [2] (absence of serum, 8 days) is reported as “remodelling of cardiomyocytes primarily visible in cell lengthening”. For the same molecule, in the data set with gp130/Raf/Erk axis (setting [4]), the “P-Erk1/2 in cardiac tissue” value is “Moderate increases”; the “amounts of B-Raf isoforms in cardiac tissue” value is “increased amounts of all B-Raf isoforms”; the “level of LIF in cardiac tissue” value is reported as “did not change; also recorded: No changes”; the “level of α-SM actin, destrin and ANP in myocardial tissue” value is given as “increased level”. For the same molecule, the “phosphorylation level of the serine residue 782 of gp130” value in the data set on gp130/Raf/Erk axis (setting [4]) is recorded as “significant increases”. In addition, the “amount of OSMRβ in cardiac tissue” value with gp130/Raf/Erk axis (60 ng OSM per gram i.p. twice daily for fourteen days, 6 months old mice) was “significant increases”. In addition, in the data set with gp130/Raf/Erk axis (injection of OSM into mice), the “heart failure phenotype after injection into mice” value is on record as “resulted into the heart failure phenotype of DCM”. Besides, the “induction of FGP / dedifferentiation” value with cardiomyocytes [1] is given as “induces more potently FGP than LIF”.
